assay: yeast display, Sf9 membrane polyspecificity reagent, FACS + sequencing; frameworks hold sequencing errors
Procedure, shortened: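 Galactose-induced (36–48 hours) yeast carrying a synthetic nanobody display library were exposed to 10% biotinylated, detergent-solubilized Sf9 membrane reagent at 4 °C for 1 hour. FACS followed streptavidin microbead enrichment, using low and high (top ~1%) gates for expression (anti-HA) and reagent binding (streptavidin). Colony PCR, MiSeq 2 × 250 sequencing and CDR-length filtering followed. Labels for polyreactivity reflect the gate of origin.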

Sequence | polyreactivity (PSR sort gate)
QVQLVESGGGLVQAGGSLRLSCAASGGTFNAYAMGWYRQAPGKERELVATISYSGGSTYYADSVKGRFTISRDNAKNTVYLQMNSLKPEDTAVYYCAKVRYYPYSPGGLDYWGQGTQVTVSS | low polyreactivity
QVQLVESGGGLVQAGGSLRLSCAASGGTFPFYAMGWYRQAPGKERELVAAITFTTSSTYYADSVKGRFTISRDNAKNTVYLQMNSLKPEDTAVYYCAVDYGWYSSYYREYDYWGQGTQVTVSS | low polyreactivity
QVQLVESGGGLVQAGGSLRLSCAASGGTFPLYAMGWYRQAPGKARELVAAIRWSGGRTYYADSVKGRFTISRDNAMKTVYLQMNSLKPEDTAVYYCAADYDDGWGYDYWGQGTQVTVSS | high polyreactivity
QVQLVESGGGLVQAGGSLRLSCAASGGTFPSNAMGWYRQAPGQERELVAAITGSSDTTYYADSVKGRFTISRDNAKNTVYLQMNSLKPEDTAVYYCAADTPRDTNRYEYWGQGTQVTVSS | low polyreactivity
QVQLVESGGGLVQAGGSLRLSCAASGGTFPVYAMGWYRQAPGKERELVAAISYSGVTTYYADSVKGRFTISRDNAKNTVYLQMNSLKPEDTAVYYCNADWRRWYIFSYDYWGQGTQVTVSS | low polyreactivity
QVQLVESGGGLVQAGGSLRLSCAASGGTFPYNAMGWYRQAPGTERELVAVITSGDGTYYADSVKGRFTNSRDNAKNTVYLQMNSLKPEDTAVDYCAAVIFWDVPYDYWGQGTQVTVSS | low polyreactivity
QVQLVESGGGLVQAGGSLRLSCAASGGTFRAYAMGWYRQAPGKEREFVAAITWSGGRTYYADSVKGRFTISRDNANNTVYLQMNSLKPEDTEVYYCATDQGHYYHAEHDYWGQGTKVTVSS | low polyreactivity
QVQLVESGGGLVQAGGSLRLSCAASGGTFRGYVMGWYIQAPGKERELVAAISYSGGTTYYADSVKGRFTISRDNAKNTVYLQMNSLKPEDTAVYYCNKGYRRYEDGATPGYGYWGQGTQVTVSS | high polyreactivity
QVQLVESGGGLVQAGGSLRLSCAASGGTFRPNAMGWYRQAPGKERELVAAITRSGGSTYYADSVKGRFTISRDNAKNTVYLQMNSLKPEDTAVYYCARDLREWGQGTQVTVSS | low polyreactivity
QVQLVESGGGLVQAGGSLRLSCAASGGTFRSNAMGWYRQAPGKERELVAAISKRGGSTHYADSVKGRFTISRDNSKNTVYLQMNSLKPEDTAVYYCNTYGWQEGDYWGQGTQVTVSS | high polyreactivity
QVQLVESGGGLVQAGGSLRLSCAASGGTFRTYTMGWYRQAPGKERELVAAINFRGGSTYYADSVKGRFTISRDNAKNTVYLQMNSLKPEDTAVYYCATPLQQEGDWGQGTQVTVSS | high polyreactivity
QVQLVESGGGLVQAGGSLRLSCAASGGTFSFNAMGWSRQAPGKEREVVAAITSDDGTNDADSVKGRFTISRDNAKNTVYLQMNSLKPEDTAVDYCAAESRFEGWGQGTQVTVSS | low polyreactivity
QVQLVESGGGLVQAGGSLRLSCAASGGTFSKYAMGWYRQAPGKEREFVAAITVSGGGTYYADSVKGRFTISRDNAKNTVYLQMNSLKPEDTAVYYCAADLAWTASDYWGQGTQVTVSS | low polyreactivity
QVQLVESGGGLVQAGGSLRLSCAASGGTFSPYAMGWYRQAPGKERELVAVIRSDVTTNYADSVKGRFTISRDNAKNTVYLQMNSLKPEDTAVYYCNVERHRVWDYQWREEDDYWGQGTQVTVSS | low polyreactivity
QVQLVESGGGLVQAGGSLRLSCAASGGTFSQYAMGWYRQAPGKERELVATISYSGTSTYYADSVKGRFTISRDNEKNTVYLHMNSLKPEDTAVYDCNIRWRWYRSDYYSWGQGTQVTVSS | high polyreactivity
QVQLVESGGGLVQAGGSLRLSCAASGGTFSRNVMGWYRQAPGTERELVAAISFSGGTTYYADSVKGRFTISRDNAKNTVYLQMISLKPEDTAVYYCAARPVNTVRPFDYWGQGTQVTVSS | high polyreactivity
QVQLVESGGGLVQAGGSLRLSCAASGGTFSYYAMGWYRQAPGKGELVAAISSGGSTNYADSVKGRFTISRDNAKNTVYLQMNSLKPEDTAVYFCAARYRFWGPYNYWGQGTQVTVSS | high polyreactivity
QVQLVESGGGLVQAGGSLRLSCAASGGTFSYYAMGWYRQARGKERELDAAISGNGDTTYYADSVKGRFTISRDNAKNTVYLQMNSLKPEDTAVYYCAADGWGFIVGIDYYPYGEGDYWGQGTQVTVSS | low polyreactivity
QVQLVESGGGLVQAGGSLRLSCAASGGTFTYSPMGWDREATGTERELVAAITDGGSTYYAVSVKGRFTISRDNAKTTFYLQMNSLKPEDTAVYYCAVRVRHNSKNTFFPYSYGYWGQGTQVTVSS | low polyreactivity
QVQLVESGGGLVQAGGSLRLSCAASGGTFVGNAMGWYRQAPGKERELVAAISTNSGSTYYADSVKGRFTISRDNAKNTVYLQMNSLKPEDPAVYYCATRNSSKRRGYYYWGQGTQVTVSS | high polyreactivity
QVQLVESGGGLVQAGGSLRLSCAASGGTFVHYTMGWYRPAPGKERELVASIRRGGSTNYADSVKGRFTISRDNAKNTVYLQMNSLKPEDTAVYYCAKRVQHYRYYYWGQGSQVTVSS | low polyreactivity
QVQLVESGGGLVQAGGSLRLSCAASGGTFVVYAMGWYRQAPGKERELVAAITWIGDSTYYADSVKGRFTISRDNAKNTVYLQMNSLKPEDTAVHYCNAEGWYYLTEYGYWGQGTQVTVSS | low polyreactivity

Sequence | polyreactivity (PSR sort gate)
QVQLVESGGGLVQAGGSLRLSCAASGGTFWAYTMGWYRQAPGKERELVATISFGTGNTYYADSVKGRFTISRDNAKNTVYLQMNSLKPEDTAVYYCAAQWPELTRSYVTVEVEYWGQGTQVTVSS | low polyreactivity
QVQLVESGGGLVQAGGSLRLSCAASGGTFWTNAMGWYRQAPGKERELVARITSGGGTNYADSVKGRFTISRDNAKNTVYVQMNSRKPEDTAVYYCAAETIYYPVAQSYYSFEYWGQGTQVTVSS | low polyreactivity
QVQLVESGGGLVQAGGSLRLSCAASGGTFWVYAMGWYRQAPGKERELVAAIRWRGGRTYYADSVKGRFTISRDNAKNTVYLQMNSLKPEDTAVYYCAATTWRSGRYNYWGQGTQVTVSA | high polyreactivity
QVQLVESGGGLVQAGGSLRLSCAASGGTFWVYAMGWYRQAPGKERELVAAIRWRGGRTYYADSVKGRFTISRDNAKNTVYLQMNSLKPEDTEVYYCAATTWRSGRYNYWGQGTQVTVSS | high polyreactivity
QVQLVESGGGLVQAGGSLRLSCAASGGTFWWYTMGWYRQAPGKERELVATITRGGSTNYADSVKGRFTISRDNAKNTVYLQMNSLKPEDTAVYYCAKRYRPYYSTYDYWGQGTQVTVSS | high polyreactivity
QVQLVESGGGLVQAGGSLRLSCAASGGTFYRYAMGWYRQAPGIERELVAAISGGRGRTYYADSVKGRFTISRDNAKNTVYLQMNSLKPVDTAVYYCSNKPYGAVSGSDYDYWGQGTQVTVSS | high polyreactivity
QVQLVESGGGLVQAGGSLRLSCAASGGTFYSYAMGWYRQAPGKEREFVAAITYGGGSTYYADSEKGRFTISRDNAKNSVYLQKNSLKPEDTAVYYCNARRYGSRLGERYYYWGQGTQVTVSS | high polyreactivity
QVQLVESGGGLVQAGGSLRLSCAASGGTIISYAMGWYRQAPRKERELVAAISRGGSSTYYADSVKGRFTISRDNAKNTVYLQMNSLKPEDTAVYYCVQLTRSGPDLDSWGQGTQVTVSS | high polyreactivity
QVQLVESGGGLVQAGGSLRLSCAASGGTIVWNAMGWNRQAPGKEREFVAAITSSGGSTYYADSVKGRFTISRDNAKNSVYLQMNSLKPEDTAVYYCNVDTHSSYEFNSWGQGTQVTVSS | low polyreactivity
QVQLVESGGGLVQAGGSLRLSCAASGGTIYRNAMGWYRQAPGKEREMVASITRGGSTTYADSVKGRFTISRDNAKNTVYLQMNCLKPEATAVYYCNAPGQQRYDSWGQGTQVTVSS | high polyreactivity
QVQLVESGGGLVQAGGSLRLSCAASGGTLFTNAMGWYRQAPGKERELVAAISWRGGRTYYADSVKGRFTISRDNAKNTVYLQMNSLKAEDTAVYYCAAASAAGYDYWGQGTQVTVSS | low polyreactivity
QVQLVESGGGLVQAGGSLRLSCAASGGTLRGYAMGWYRQAPGKERELVAAISKRSGSTYYADSVKGRFTISRDNAKNTVYLQMNSLKPEDTAVYYCNTRGLTTEGHYYWGQGTQVTVSS | high polyreactivity
QVQLVESGGGLVQAGGSLRLSCAASGGTLRYYAMGGYRQAPGKERELVAVITSSAGRTYYADSVKGRFTISRDNAKNTVYLQMNSLKPEDTAVYYCPAYDAYSPYQALYDYWGQGTQVTVSS | low polyreactivity
QVQLVESGGGLVQAGGSLRLSCAASGGTLYRNVMGWYRQAPGKERELVAAISKSGGSTYYADSVKGRFTISRDNAKNTFYLQMNSLKPEDTAVYYCDVSHNRGYDSWGQGTQVTVSS | high polyreactivity
QVQLVESGGGLVQAGGSLRLSCAASGGTLYRYAMGWYRQAPGKERELVAGISSSGGRTYNADSVKGRFTISRDNAKNTVYLQMNSLIPEDTAVYYCAKYWVSSYDYWGQGTQVTVSS | high polyreactivity
QVQLVESGGGLVQAGGSLRLSCAASGGTSAVYAMGWYRQAPGKERELVAAISSDGSTNYADSVKGRFTISRDNAKNTVYLQMNSLKPEDTAVYYCAVDFSTYEWSGHITRASGSYDYWGQGTQVTVSS | low polyreactivity
QVQLVESGGGLVQAGGSLRLSCAASGHIFFYYTMGWYRQAPGKERELVAGITIGGSTNYADSVKGRFTISRDNAKNTVYLKMNSLKPEDTAVYYCNVVKYVYIYSYWEYYYWGQGTQVTVSS | low polyreactivity
QVQLVESGGGLVQAGGSLRLSCAASGHIFLHNAMGWYRQAPGKERELVAGITYSDTSTYADSVKGRFTISRDNAKNTVYLQMNSLKPEDTAVYYCEYYYWGQGTQVTVSS | low polyreactivity
QVQLVESGGGLVQAGGSLRLSCAASGHTFSISAMGWYRQAPGKERELVAAISLSGGSTDYADSVKGRFTISRDNAKNTVYLQMNSLKPEDTAVYYCAADVFTARRSYDYGGQGTQVTVSS | low polyreactivity
QVQLVESGGGLVQAGGSLRLSCAASGIFLGYAMGWYRQAPGKERELVAAITSGDSTYYADSVKGRLTISRDNAKNTVYLQMNSLKPEDTAVYYCAKTRYSWPRVWYNYWGQGTQVTVSS | low polyreactivity
QVQLVESGGGLVQAGGSLRLSCAASGIFRQNAMGWYRQAPGKERELVAGISQSGGSTYYADSVKGRFTISRDNAKNTVYLQMNSLKPEDTAVYYCAGVSIWGYDYWGQGTQVTVSS | low polyreactivity

Source: the nanobody polyreactivity screen of Harvey et al. (2022)
